Data as given in US20170267766A1 (PIERRE FABRE MEDICAMENT, published 2017).
Residue numbers refer to the chain shown, from its start. Blank lines part the entries; values can stand above or below the binder they belong to.

Experiments:
[1] = target: T1, human IGF-1R (native, on cells) (human, UniProt P08069 31-1367); experiment: FACS titration, MCF-7
T1 construct: also called hIGF-1R; native IGF-1R on MCF-7 cells
Experimental: The binding properties of a series of anti-IGF-1R antibodies were evaluated by FACS analyses on the human MCF-7 breast adenocarcinoma cell line (ATCC#HTB-22) using increasing antibody concentrations. For that purpose, cells (1×10⁶ cells/ml) were incubated with anti-IGF-1R antibodies for 20 min. at 4° C. in FACS buffer (PBS, 0.1% BSA, 0.01% NaN₃). They were then washed 3 times and incubated with the appropriate secondary antibody coupled with Alexa 488 for 20 additional minutes at 4° C. in the dark before being washed 3 times in FACS buffer. The binding of anti-IGF-1R antibodies was immediately performed on viable cells which were identified using propidium iodide (that stains dead cells). The maximum of signal intensity obtained with each antibody was designed as Bₘₐₓ and expressed in mean of fluorescence intensity (MFI). The EC₅₀ of binding expressed in molarity (M) was calculated using a nonlinear regression analysis (GraphPad Prims 4.0).

[2] = target: T1, human IGF-1R (native, on cells); experiment: cell-based or functional assay
[3] = target: T1, human IGF-1R (native, on cells); experiment: FACS titration, hIGF-1R transfected cells
Experimental: Briefly, increasing concentrations of chimeric mAbs were incubated with cells for 20 min at 4° C. in FACS buffer (PBS, 0.1% BSA, 0.01% NaN₃). Cells were then washed 3 times and incubated with the appropriate secondary antibody coupled with Alexa 488 before being incubated for 20 additional minutes at 4° C. in the dark and then washed 3 times in FACS buffer. The binding of anti-IGF-1R antibodies was immediately performed on viable cells which were identified using propidium iodide (that stains dead cells). The binding EC₅₀ expressed in molarity (M) was calculated using a nonlinear regression analysis (GraphPad Prims 4.0).

[4] = target: T1, human IGF-1R (native, on cells); experiment: cell-based or functional assay; remark: listed apart in the source
[5] = target: T2, monkey IGF-1R (on COS-7 cells) (African green monkey); experiment: cell-based or functional assay
[6] = target: T1, human IGF-1R (native, on cells); experiment: FACS titration, MCF-7; remark: listed apart in the source
Experimental: (§1) The binding properties of the humanized variants were evaluated by FACS analyses on the human MCF-7 breast adenocarcinoma cell line and the monkey cell line Cos-7 using increasing antibody concentrations. For that purpose, cells (1×10⁶ cells/ml) were incubated with anti-IGF-1R humanized antibodies for 20 min. at 4° C. in FACS buffer (PBS, 0.1% BSA, 0.01% NaN3). They were then washed 3 times and incubated with the appropriate secondary antibody coupled with Alexa 488 for 20 additional minutes at 4° C. in the dark before being washed 3 times in FACS buffer. The binding of anti-IGF-1R antibodies was immediately performed on viable cells which were identified using propidium iodide (that stains dead cells). The EC₅₀ of binding expressed in molarity (M) was calculated using a nonlinear regression analysis (GraphPad Prims 4.0).

[7] = target: T2, monkey IGF-1R (on COS-7 cells); experiment: FACS titration, Cos-7
Experimental: as §1

B1: c212A11 (antibody, human IgG1, kappa, V domains shown)
VH: QVQLQQSGPELVKPGASVKMSCKASGYTFTSYYIHWVKQRPGQGLEWIGWIWPGDGSTKYNEKFKGKTTLTADKSSSTAYMFLSSLTSEDSAVYFCASPMITPNYAMDYWGQGASVTVSS
VL: DIQMTQTTSSLSASLGDRVTISCRASQDINKYLNWYQQQPDGTVKLLIYYTSRLHSGVPSRFSGRGSGTDYSLTISNLEQEDIATYFCQQGSTLPYTFGGGTKLEIKR
notes: group G2; also called chimeric 212A11
Bmax [1]: 991 MFI
EC50 [1]: 0.67 nM
% Internalization (MCF-7, 10 µg/ml, 4 h) [2]: 80%
ΔMFI [2]: 322 MFI
Bmax [3]: 2510 MFI
EC50 [3]: 0.44 nM
hIGF-1R phosphorylation, % of that induced by IGF-1 (MCF-7, Ab 10 µg/ml) [4]: < 20%
% internalisation [5]: 75%
ΔMFI [5]: 98 MFI

B2: c213B10 (antibody, human IgG1, kappa)
heavy: not shown
light: DIQMTQTTSSLSASLGDRVTISCRASQDISKYLNWYQQQPDGTIKLLIYYTSRLHSGVPSRFSGRGSGTDYSLTITNLEQEDIATYFCQQGSALPYTFGGGTKLEIKRTVAAPSVFIFPPSDEQLKSGTASVVCLLNNFYPREAKVQWKVDNALQSGNSQESVTEQDSKDSTYSLSSTLTLSKADYEKHKVYACEVTHQGLSSPVTKSFNRGEC
notes: group G2; also called chimeric 213B10
Bmax [1]: 1100 MFI
EC50 [1]: 0.44 nM
% Internalization (MCF-7, 10 µg/ml, 4 h) [2]: 85%
ΔMFI [2]: 369 MFI
Bmax [3]: 2030 MFI
EC50 [3]: 0.33 nM
hIGF-1R phosphorylation, % of that induced by IGF-1 (MCF-7, Ab 10 µg/ml) [4]: < 20%
% internalisation [5]: 73%
ΔMFI [5]: 101 MFI

B3: c214F8 (antibody, human IgG1, kappa)
heavy: not shown
light: B2 light with I21F
notes: group G2; also called chimeric 214F8
Bmax [1]: 1070 MFI
EC50 [1]: 0.5 nM
% Internalization (MCF-7, 10 µg/ml, 4 h) [2]: 87%
ΔMFI [2]: 403 MFI
Bmax [3]: 2090 MFI
EC50 [3]: 0.27 nM
hIGF-1R phosphorylation, % of that induced by IGF-1 (MCF-7, Ab 10 µg/ml) [4]: < 20%
% internalisation [5]: 72%
ΔMFI [5]: 98 MFI

B5: hz208F2 H070/L018 (antibody, human IgG1, kappa, V domains shown)
VH: QVQLVQSGAEVKKPGASVKVSCKASGYTFTSYYMHWVRQAPGQGLEWMGWIWPGDGSTKYAQKFQGRVTMTRDTSTSTVYMELSSLRSEDTAVYYCASPMITPNYAMDYWGQGTLVTVSS
VL: DIQMTQSPSSLSASVGDRVTITCRASQDISKYLNWYQQKPGKAPKLLIYYTSRLQSGVPSRFSGRGSGTDYSLTISSLQPEDFATYFCQQGSTLPYTFGGGTKVEIKR
notes: humanized 208F2 variant
EC50 [6]: 0.46 nM
EC50 [7]: 0.73 nM

B8: hz208F2 H047/L018 (antibody, human IgG1, kappa, V domains shown)
VH: B5 VH with M34I, T76S, S77N
VL: B5 VL
notes: humanized 208F2 variant
EC50 [6]: 0.77 nM
EC50 [7]: 0.92 nM

B16: hz208F2 H051/L018 (antibody, human IgG1, kappa, V domains shown)
VH: B5 VH with T76S, S77N, Y95F
VL: B5 VL
notes: humanized 208F2 variant
EC50 [6]: 0.57 nM
EC50 [7]: 0.72 nM

B18: hz208F2 H071/L018 (antibody, human IgG1, kappa, V domains shown)
VH: B5 VH with S77N
VL: B5 VL
notes: humanized 208F2 variant
EC50 [6]: 0.55 nM
EC50 [7]: 1.1 nM

B19: hz208F2 H076/L021 (antibody, human IgG1, kappa, V domains shown)
VH: B5 VH with M34I
VL: B5 VL with Q55H, Y71F
notes: humanized 208F2 variant
EC50 [7]: 1.1 nM

Results, then the binder that gave them:

Bmax [1]: 993 MFI
EC50 [1]: 0.47 nM
% Internalization (MCF-7, 10 µg/ml, 4 h) [2]: 80%
ΔMFI [2]: 353 MFI
Bmax [3]: 2520 MFI
EC50 [3]: 0.55 nM
hIGF-1R phosphorylation, % of that induced by IGF-1 (MCF-7, Ab 10 µg/ml) [4]: < 20%
% internalisation [5]: 74%
ΔMFI [5]: 102 MFI
B4: c219D6 (antibody, human IgG1, kappa, V domains shown)
VH: B1 VH with A16D, T28S, Y33F, A72T, S84N
VL: B1 VL with N30S
notes: group G2; also called chimeric 219D6

EC50 [6]: 0.48 nM
EC50 [7]: 0.82 nM
B6: hz208F2 H037/L021 (antibody, human IgG1, kappa, V domains shown)
VH: B5 VH with T74K, T76S, Y95F
VL: B5 VL with Q55H, Y71F
notes: humanized 208F2 variant

EC50 [6]: 0.77 nM
EC50 [7]: 1.1 nM
B7: hz208F2 H077/L018 (antibody, human IgG1, kappa, V domains shown)
VH: B5 VH with M34I, Y95F
VL: B5 VL
notes: humanized 208F2 variant

EC50 [6]: 0.58 nM
EC50 [7]: 0.83 nM
B9: hz208F2 H057/L018 (antibody, human IgG1, kappa, V domains shown)
VH: B5 VH with M34I, T74K, S77N
VL: B5 VL
notes: humanized 208F2 variant

EC50 [7]: 0.85 nM
B10: hz208F2 H049/L021 (antibody, human IgG1, kappa, V domains shown)
VH: B5 VH with T74K, T76S
VL: B5 VL with Q55H, Y71F
notes: humanized 208F2 variant

EC50 [6]: 0.49 nM
EC50 [7]: 0.69 nM
B11: hz208F2 H049/L018 (antibody, human IgG1, kappa, V domains shown)
VH: B5 VH with T74K, T76S
VL: B5 VL
notes: humanized 208F2 variant

EC50 [6]: 0.65 nM
EC50 [7]: 1.1 nM
B12: hz208F2 H076/L018 (antibody, human IgG1, kappa, V domains shown)
VH: B5 VH with M34I
VL: B5 VL
notes: humanized 208F2 variant

EC50 [6]: 0.57 nM
EC50 [7]: 1.2 nM
B13: hz208F2 H052/L021 (antibody, human IgG1, kappa, V domains shown)
VH: B5 VH with Y95F
VL: B5 VL with Q55H, Y71F
notes: humanized 208F2 variant

EC50 [6]: 0.84 nM
EC50 [7]: 0.99 nM
B14: hz208F2 H052/L018 (antibody, human IgG1, kappa, V domains shown)
VH: B5 VH with Y95F
VL: B5 VL
notes: humanized 208F2 variant

EC50 [6]: 1.1 nM
EC50 [7]: 1.2 nM
B15: hz208F2 H068/L018 (antibody, human IgG1, kappa, V domains shown)
VH: B5 VH with S77N, Y95F
VL: B5 VL
notes: humanized 208F2 variant

EC50 [6]: 0.49 nM
EC50 [7]: 0.74 nM
B17: hz208F2 H037/L018 (antibody, human IgG1, kappa, V domains shown)
VH: B5 VH with T74K, T76S, Y95F
VL: B5 VL
notes: humanized 208F2 variant
